The target of the test is CD19-CD22 CAR(CD19-CD22双靶点CAR-T细胞表面表达的CD19-CD22 scFv). The test is described as follows: flow cytometry on CD19-CD22 CAR-T cells, positive control tube.

The substance “Alexa Fluor®647荧光标记的抗鼠F(ab')2抗体(Jackson ImmunoResearch Laboratories，货号#115-605-072) (antibody)” registered a CAR阳性百分率 of 31.6%.

The values above are taken from CN116640216A.
